Experimental findings from the supplement of paper PMC9732359 are described below.

± gives the uncertainty stated by the source.

The data set is described as follows: protein stability index of a GFP-peptide fusion (yeast GPS) (PSI 1-4); higher = more stable; sorted into four equal gates, so the index is relative within each strain. In short, it runs like this: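 Peptides tiling yeast proteins in 17-residue segments were fused downstream of GFP, with Cherry expressed from the same plasmid. As a pooled library in yeast, mid-log cultures grown in leucine-free medium were sorted into four equal gates by GFP/Cherry fluorescence ratio. Gate plasmids were PCR-amplified and Illumina-sequenced, and barcodes linked reads to strains. Each peptide received a protein stability index equal to the sum of each gate's read frequency times its gate number.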

With LQYLPLYAVSTFENTNN [SIR4], the protein stability index was found to be 1.82 ± 0.038 (doa10∆), 1.71 ± 0.042 (pdr5∆), 1.41 ± 0.057 (san1∆) and 2.31 ± 0.046 (ubr1∆).

Consider LRACAANVDQISFLEPI [YMR129W/POM152], for which the protein stability index is 3.06 ± 0.072 (doa10∆), 2.98 ± 0.07 (pdr5∆), 2.92 ± 0.05 (san1∆) and 2.97 ± 0.046 (ubr1∆).

Regarding LRDTFIELDQVLNMLYW [RPO21], the protein stability index was 2.19 ± 0.1 (doa10∆), 2.51 ± 0.058 (pdr5∆), 2.4 ± 0.07 (san1∆) and 2.27 ± 0.06 (ubr1∆).

Take LRLFINEEGDWSCIVVE [ITC1]: the protein stability index reads like this: (doa10∆) 2.74 ± 0.088; (pdr5∆) 2.62 ± 0.083; (san1∆) 3.07 ± 0.083; (ubr1∆) 3.19 ± 0.1.

With LRNWEELNIIPRDLLRV [PRP28], the protein stability index came to 1.09 ± 0.068 (doa10∆), 1.35 ± 0.061 (pdr5∆), 1.39 ± 0.21 (san1∆) and 1.07 ± 0.048 (ubr1∆).

Regarding LRQLASYYSREQDALFI [RPN1], the protein stability index (doa10∆) worked out at 1.7 ± 0.045, the protein stability index (pdr5∆) worked out at 1.8 ± 0.046, the protein stability index (san1∆) amounted to 1.63 ± 0.08 and the protein stability index (ubr1∆) amounted to 1.81 ± 0.042.

LRRRTASHNVRRIPKRM [POP1]: the protein stability index is, setting by setting: (doa10∆) 2.98 ± 0.065; (pdr5∆) 3.02 ± 0.062; (san1∆) 2.85 ± 0.052; (ubr1∆) 2.75 ± 0.042.

As to LRSKTSAGRIESNNPSH [SIR4], the protein stability index is, setting by setting: (doa10∆) 2.56 ± 0.1; (pdr5∆) 2.48 ± 0.081; (san1∆) 2.55 ± 0.18; (ubr1∆) 2.79 ± 0.098.

Turning to LRSTENGIVDQVLVTTN [RPB2], the protein stability index by setting is: (doa10∆) 2.39 ± 0.095; (pdr5∆) 2.03 ± 0.11; (san1∆) 2.46 ± 0.099; (ubr1∆) 1.82 ± 0.055.

Sequence LRVEHIKHSKCRQEFLE [RPL21A] returned a protein stability index (doa10∆) of 1.59 ± 0.21, a protein stability index (pdr5∆) of 2.43 ± 0.16, a protein stability index (san1∆) of 1.17 ± 0.18 and a protein stability index (ubr1∆) of 1.31 ± 0.11.

For the sequence LSATQFTQPALTLMEKA [FAS1], the protein stability index by setting is: (doa10∆) 2.37 ± 0.073; (pdr5∆) 2.56 ± 0.058; (san1∆) 2.7 ± 0.049; (ubr1∆) 2.58 ± 0.054.

As for LSCQYDNTVRTSANGIV [RPO31], the protein stability index amounted to 1.32 ± 0.19 (doa10∆) and 1.26 ± 0.14 (pdr5∆).

Consider LSDRANKNQDAFEAELS [ARP9], for which the protein stability index is, setting by setting: (doa10∆) 3.28 ± 0.072; (pdr5∆) 3.13 ± 0.08; (san1∆) 3.04 ± 0.07; (ubr1∆) 3.31 ± 0.057.

On to LSDRITGNFIIPSGNVW [PRP8], for which the protein stability index is, setting by setting: (doa10∆) 2.76 ± 0.1; (pdr5∆) 3.1 ± 0.087; (san1∆) 2.84 ± 0.064; (ubr1∆) 2.9 ± 0.065.

In the case of LSGKFSTIPTRENGKGG [ROX3], the protein stability index turned out to be 3.28 ± 0.23 (doa10∆), 3.22 ± 0.11 (pdr5∆), 3.01 ± 0.063 (san1∆) and 3.1 ± 0.23 (ubr1∆).

Regarding LSGNSVEDVSQNAADLQ [RPL9A], the protein stability index is 3.31 ± 0.15 (doa10∆), 3.55 ± 0.15 (pdr5∆), 2.78 ± 0.13 (san1∆) and 3.31 ± 0.058 (ubr1∆).

LSHGSLEHVLLVPTASF [FAS1]: the protein stability index is, setting by setting: (doa10∆) 1.24 ± 0.039; (pdr5∆) 1.4 ± 0.043; (san1∆) 1.33 ± 0.079; (ubr1∆) 1.19 ± 0.029.

With LSIKNSFIINFISNLPN [NUT1], the protein stability index by setting is: (doa10∆) 1.92 ± 0.07; (pdr5∆) 1.81 ± 0.05; (san1∆) 1.87 ± 0.1; (ubr1∆) 1.79 ± 0.04.

As for LSIQYMIQKVMEYLKSS [RPN5], the protein stability index by setting is: (doa10∆) 1.38 ± 0.082; (pdr5∆) 1.56 ± 0.082; (san1∆) 1.59 ± 0.2; (ubr1∆) 1.69 ± 0.11.

Take LSISVAAEPMDSKMIQD [SNU114]: the protein stability index (doa10∆) turned out to be 2.73 ± 0.061, the protein stability index (pdr5∆) came to 3.03 ± 0.081, the protein stability index (san1∆) is 2.84 ± 0.077 and the protein stability index (ubr1∆) came out at 3.18 ± 0.11.

Turning to LSKVAALSGNEGDASPF [RPB2], the protein stability index is, setting by setting: (doa10∆) 1.91 ± 0.046; (pdr5∆) 2.79 ± 0.052; (san1∆) 2.15 ± 0.083; (ubr1∆) 2.59 ± 0.071.

For LSKVFSDVLFEFTKINT [YJL039C/NUP192], the protein stability index (doa10∆) stood at 2.87 ± 0.11, the protein stability index (pdr5∆) was determined as 2.5 ± 0.068, the protein stability index (san1∆) came to 2.09 ± 0.13 and the protein stability index (ubr1∆) stood at 2.94 ± 0.051.

Turning to LSKVSLLTPDIGAVYSG [PRE8], the protein stability index runs as follows: (doa10∆) 1.68 ± 0.055; (pdr5∆) 1.99 ± 0.073; (san1∆) 1.73 ± 0.09; (ubr1∆) 2.07 ± 0.071.

As to LSLHTGFIENCNGSALV [MTR3], the protein stability index is, setting by setting: (doa10∆) 2.65 ± 0.066; (pdr5∆) 3 ± 0.06; (san1∆) 2.79 ± 0.058; (ubr1∆) 2.74 ± 0.067.

Take LSLTLNTHYHADYRLIL [SNF2]: the protein stability index was 2.83 ± 0.077 (doa10∆), 2.98 ± 0.08 (pdr5∆), 2.75 ± 0.1 (san1∆) and 2.65 ± 0.073 (ubr1∆).

LSNIEAQFLRSVVHPGE [RPO21] yielded a protein stability index (doa10∆) of 2.77 ± 0.1, a protein stability index (pdr5∆) of 2.73 ± 0.21, a protein stability index (san1∆) of 2.45 ± 0.1 and a protein stability index (ubr1∆) of 2.97 ± 0.14.
